In patent publication US20020127221A1:
No end group written: not given here.

What was measured:
CRF-R1 [1] = experiment: displacement of 125I-Sauvagine, membranes of CHO cells expressing CRFR1, filtration assay
CRF-R2β [2] = experiment: displacement of 125I-Sauvagine, membranes of CHO cells expressing CRFR2β, filtration assay
CRF-R1 [3] = experiment: radioreceptor competition vs 125I-[Tyr0,Glu1,Nle17]-sauvagine, CHO cell membranes
CRF-R2β [4] = experiment: as above
CRF-R1 [5] = experiment: cell-based or functional assay
CRF-R2β [6] = experiment: cell-based or functional assay
CRF-R1 [7] = experiment: assay not named in the summary; presumably 125I-sauvagine competition
CRF-R1 [8] = experiment: radioreceptor competition vs labeled sauvagine, CHO cell membranes; reference urocortin

Sequence of CRF-R1 (P34998 24-415): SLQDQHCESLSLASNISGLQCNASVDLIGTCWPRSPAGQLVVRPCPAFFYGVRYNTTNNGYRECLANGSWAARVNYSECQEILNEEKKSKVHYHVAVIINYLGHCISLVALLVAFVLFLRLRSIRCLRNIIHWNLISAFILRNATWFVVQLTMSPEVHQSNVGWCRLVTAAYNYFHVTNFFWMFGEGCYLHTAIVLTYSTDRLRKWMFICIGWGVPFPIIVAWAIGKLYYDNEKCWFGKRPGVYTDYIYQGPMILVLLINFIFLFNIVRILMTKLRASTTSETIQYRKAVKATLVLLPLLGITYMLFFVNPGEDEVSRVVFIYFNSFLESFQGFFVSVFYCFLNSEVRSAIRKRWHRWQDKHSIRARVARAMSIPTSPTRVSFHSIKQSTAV

Molecule | Ki (CRF-R1 [1]) [nM] | Ki (CRF-R2β [2]) [nM] | Ki (CRF-R1 [3]) [nM] | Ki (CRF-R2β [4]) [nM] | Avg. EC50 (nM) (cAMP) (CRF-R1 [5]) | Avg. EC50 (nM) (cAMP) (CRF-R2β [6]) | Ki (CRF-R1 [7]) [nM] | fold less effective than urocortin at competing for binding of labeled sauvagine (CRF-R1 [8]) [fold]
urocortin (Ucn), species not stated (from UniProt P55090 81-120) (peptide) | 0.13 | 0.15 | – | – | – | – | – | –
QGPPISIDLSLELLRKMIEIEKQEKEKQQAANNRLLLDTI (peptide, UniProt P01144 1-40, looked up, ends and bridges not checked) [Sauvagine (frog)] | – | – | 0.94 | 1.7 | – | – | – | –
IVLSLDVPIGLLQILLEQARARAAREQATTNARILARVGHC-NH2 [human urocortin-related peptide] | 78 | 0.23 | – | 0.5 | > 100 | 0.42 | 70 | –
DDPPLSIDLTFHLLRTLLELARTQSQRERAEQNRIIFDSV (peptide, UniProt P55090 81-120, looked up) [Urocortin (rat)] | – | – | – | 0.62 | 0.29 | 0.17 | – | –
VILSLDVPIGLLRILLEQARYKAARNQAATNAQILAHV-NH2 [Urocortin II (mouse)] | – | – | – | 0.66 | > 100 | 0.14 | – | > 1000
